The results in this text go back to the RNAGym collection of RNA variant scans (doi:10.1093/molbev/msab373).

B1: Azoarcus group I ribozyme (parent)
chain: GUGCCUUGCGCCGGGAAACCACGCAAGGGAUGGUGUCAAAUUCGGCGAAACCUAAGCGCCCGCCCGGGCGUAUGGCAACGCCGAGCCAAGCUUCGGCGCCUGCGCCGAUGAAGGUGUAGAGACUAGACGGCACCCACCUAAGGCAAACGCUAUGGUGAAGGCAUAGUCCAGGGAGUGGCGAAAGUCACACAAACCGG

Variants of B1 are the subject of this data set. The experiment in a line: reverse-splicing fitness (ratio to wild type); higher = more active; in vitro selection; Mg2+ level not given. The method, boiled down: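 An in vitro group I ribozyme library with randomized positions was T7-transcribed and gel-purified. In triplicate, 10 pmol RNA in EPPS pH 7.5 was reacted with 50 pmoles of a 30-nt RNA substrate for 1 h at 37 °C across several added MgCl2 levels (1–48 mM), then stopped with EDTA. Products were reverse transcribed from a substrate-complementary primer, PCR-amplified and sequenced (HiSeq 4000). Fitness is a variant's read proportion after selection over that before, normalised to wild type.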
Regarding C82U A120G A145U C150G C169U U176A, the reverse-splicing fitness came out at 0.0132. With C82U A120U A145U C150G U176G, the reverse-splicing fitness was 0.00253. For the variant C82A A111U A120C A145U U176A, the reverse-splicing fitness is 0.0168.

Take C82U A111U A120G C150G U176A: the reverse-splicing fitness came out at 0.00524. Turning to C82A A111G A120C A145C C150G U176G, the reverse-splicing fitness is 0.00265. In the case of A111G A120C A145U C150G C169U U176C, the reverse-splicing fitness was 0.0159.

Regarding C82G A111C A120C A145U U176A, the reverse-splicing fitness came out at 0.0196.

With C82U A111G A120G A145U C150G C169A, the reverse-splicing fitness stood at 0.00861. Regarding C82G A120U A145G C150U C169U U176A, the reverse-splicing fitness is 0.00444. Turning to C82G A111C C150U C169U U176A, the reverse-splicing fitness worked out at 0.015.

For the variant A120G A145U C169A U176G, the reverse-splicing fitness worked out at 0.00923. As to C82U A120G C150G C169U U176G, the reverse-splicing fitness is 0.00521. C82U A111U A145G C150U C169U U176C: the reverse-splicing fitness stood at 0.013. As for C82G A120G C150U C169A U176C, the reverse-splicing fitness was 0.0189. To C82A A111C A120C C150U C169U U176C belongs 0.0139; to C82G A111G C150G C169G, 0.00817; to C82U A111G A120G C150G C169A U176A, 0.00933. With C82A A111U A120U C169U U176A the figure was 0.00519; with A111U A120C A145U C150U U176G, 0.0333. Take A120U A145G C150G: the reverse-splicing fitness came to 0.25. C82G A111C A120U A145U: the reverse-splicing fitness is 0.0481. To C82U A120U A145G C150G C169G U176C belongs 0.00499; to C82G A111G A145U C150U C169G U176G, 0.00611; to C82G A111G A120G A145G C150A C169U U176A, 0.0177. Regarding C82U A111C A120G A145G C169G U176A, the reverse-splicing fitness was 0.019. With C82U A111G A145G C150G C169U U176C the figure was 0.012. As to C82U A145G C169U, the reverse-splicing fitness was 0.0143.

For the variant C82A A120U A145C C150A C169G U176G, the reverse-splicing fitness was 0.00139.

For the variant A111U A120G C169G U176G, the reverse-splicing fitness came out at 0.00419.

On to C82G A120G A145C C150A C169G U176A, for which the reverse-splicing fitness was 0.0232. Turning to C82A A111C A120U A145C C150A C169G, the reverse-splicing fitness came to 0.00308. On to C82G A120U A145U C150U C169U U176A, for which the reverse-splicing fitness was 0.00283. Regarding A111G A120G A145C C150G U176G, the reverse-splicing fitness is 0.00289. For the variant C82G A111C A120U A145G C150A C169U, the reverse-splicing fitness amounted to 0.00514. As to C82G U176C, the reverse-splicing fitness amounted to 0.352. Take C82A A111G A120U A145G C150G C169A U176C: the reverse-splicing fitness amounted to 0.00953. On to C82U A111G A145C C150G C169G, for which the reverse-splicing fitness is 0.00679. Turning to A111G A120C A145U C150A C169A U176G, the reverse-splicing fitness worked out at 0.00401. For the variant C82U A111U A120U A145G C150U C169A U176C, the reverse-splicing fitness worked out at 0.0032. Take A111G A145U C150A U176G: the reverse-splicing fitness stood at 0.121.

Take C82A A111G A145U C169G: the reverse-splicing fitness is 0.00852. To C82G A111U A120U A145U C150U C169G belongs 0.00327; to C82U A111G A120G A145U C150A C169G, 0.00754. Consider C82U A111C A120C A145C C150U C169G, for which the reverse-splicing fitness is 0.00644. For the variant A111G A120U A145U C169U, the reverse-splicing fitness came to 0.122.

With C82G A111G A120C A145U C150A U176C, the reverse-splicing fitness was found to be 0.0167.

As for C82G A111C A120U A145G U176G, the reverse-splicing fitness was determined as 0.004.

For C82U A111G A145G C169G U176G, the reverse-splicing fitness worked out at 0.00438. For A111G A120C C150A C169U U176G, the reverse-splicing fitness amounted to 0.00616.

As to C82G A111G A120C A145U C150A C169U, the reverse-splicing fitness is 0.00952. As to C82A A145G C169A, the reverse-splicing fitness turned out to be 0.0112. Turning to C82U A111G A120U A145G C150G, the reverse-splicing fitness was found to be 0.00906. Consider C82U A111U A120C C150G C169G U176A, for which the reverse-splicing fitness turned out to be 0.00688.

Turning to A111G A120U A145U C150G C169G U176G, the reverse-splicing fitness amounted to 0.00203. In the case of C82G A120U C169G U176G, the reverse-splicing fitness is 0.00147. With C82G A111G A145U C169A, the reverse-splicing fitness was determined as 0.00634. With A120G C150A C169A the figure was 0.0602.

As to C82G A111G A120U A145U C150A C169A, the reverse-splicing fitness stood at 0.00193.

On to A111G A120U A145U C150U C169A U176C, for which the reverse-splicing fitness was found to be 0.0026. For C82U A145U C169G U176G, the reverse-splicing fitness was found to be 0.00447. Take A111U A120U A145C C150U C169A: the reverse-splicing fitness stood at 0.00229. On to A120C A145G U176A, for which the reverse-splicing fitness came to 0.707. As to C82A A111C A120C U176G, the reverse-splicing fitness stood at 0.00722. Turning to C82A A111G A145G U176C, the reverse-splicing fitness came out at 0.245.

For the variant C82U A111U A120U C150G, the reverse-splicing fitness amounted to 0.00645.

C82G A111C A120C A145C C169G U176G: the reverse-splicing fitness was 0.0061. For the variant C82G A111G A120U A145G C150U U176C, the reverse-splicing fitness is 0.0196. With A111U A120C C169A U176G, the reverse-splicing fitness was found to be 0.00415. In the case of A111G A120U A145U C150G C169U U176G, the reverse-splicing fitness was 0.00216. For the variant C82U A111C A145C C169A U176A, the reverse-splicing fitness worked out at 0.0127. With C82U A111G A120U A145G C150U C169U U176G the figure was 0.00238. To A120C A145U C150A C169A U176A belongs 0.0124; to A111G A120U A145U C150U C169G U176C, 0.009.

As for C82U A111C A120G U176C, the reverse-splicing fitness worked out at 0.02. For the variant A111U A145G C150A C169G, the reverse-splicing fitness is 0.0147. As for A111G A145G C150U C169A U176C, the reverse-splicing fitness was 0.0252. Regarding C82U A111G A120U A145U C150U C169U U176G, the reverse-splicing fitness came out at 0.00192. Take C150G C169A U176A: the reverse-splicing fitness came to 0.0121. Regarding C82U A111G A120C A145C C169A U176C, the reverse-splicing fitness was 0.00404.

On to A111G A120G A145C C169G U176C, for which the reverse-splicing fitness worked out at 0.0984. In the case of C82G A111G A120G A145G C150U U176A, the reverse-splicing fitness stood at 0.0115.

For the variant C82U A120U A145U C150A C169A U176G, the reverse-splicing fitness turned out to be 0.00164.

Turning to C82U A111C A120U A145C C150U C169A U176C, the reverse-splicing fitness stood at 0.0025.
